According to PMC7005868:

Target: CD63-GLucC (CD63 truncated at Val206 fused to the C-terminal fragment of Gaussia luciferase) (UniProt P08962)
Assay: split reporter (BiFC, NanoBiT); Gaussia luciferase protein complementation assay (PCA); GLucN and GLucC fusion plasmids co-transfected 1:1 into HEK293FT; membranes disrupted by two freeze-thaw cycles; luminescence with 10 uM coelenterazine

UniProt P08962, sequence (P08962 1-206): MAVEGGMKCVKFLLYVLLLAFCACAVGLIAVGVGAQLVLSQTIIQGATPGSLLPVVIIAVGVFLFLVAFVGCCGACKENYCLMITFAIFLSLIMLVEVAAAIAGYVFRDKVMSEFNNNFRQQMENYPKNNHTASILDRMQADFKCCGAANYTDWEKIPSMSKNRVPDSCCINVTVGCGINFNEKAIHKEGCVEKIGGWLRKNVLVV

GLucN-T1ΔC (TIMP-1 truncated after L168) (domain or fragment)
loss of the ability to bind CD63 against full-length TIMP-1: 83%
